Measured values as given in US11649460B2, “DNA aptamers, method for inhibiting human galectin-1 and method of treating a mammal in need thereof” (priority 2020, dated 2023).

Legend:
human galectin-1 (hGal1) = target: T1, human galectin-1 (hGal1) (Homo sapiens, UniProt P09382); assay: Tryptophan fluorescence quenching (Stern-Volmer); format: binding; conditions: Stern-Volmer fit; 5 μM hGal1, aptamer 0 to 7.2 μM; read-out: apparent dissociation constant
T1 construct: 42; made in house; host or cells: E. coli strain M-15
Method: Fluorescence measurements were taken by a spectrofluorimeter HITACHI F-4500, the spectra were collected by excitation and emission at a rate of 240 nm per min, using a 5 nm slit widths and recorded at room temperature. A total of 5 μM hGal1 solution was incubated for 10 hours with aptamer aliquots as quencher, from 0 to 7.2 μM, in PBS 1× buffer. The spectra were obtained between 300-450 nm after excitation at 295 nm and all buffer contributions were corrected for measurements. As previously described, the log of fluorescence quenching was evaluated by plotting it versus log of aptamer concentration. The Stern-Volmer equation was used to estimate the number of interacting sites (n) and the apparent kD.
Human galectin-1 tryptophan residue has an emission peak at 348 nm after […] exited. SEQ ID NO.: 4 promotes changes the fluorescence spectrum of Trp68, which is the sole Trp in the subunit of hGal1 and is one of the residues constituting its CRD. Upon the aptamer addition, fluorescence emission decreased (FIG. 1C). The fluorescence quenching log versus aptamer concentration log measurements was plotted and it was fitted with Stern-volmer equation. The best fit established apparent dissociation constant of approximately 31.9 nM and a binding site of 1.5 (FIG. 1D).

[1] = system: A-375 human malignant melanoma; assay: SRB cell proliferation (cytotoxicity) assay, A-375
Text: (§1) The XLSTAT software was used to determine the IC50, TGI and LC50 values using the four-parameter logistic curve equation.

[2] = system: HCT 116 human colorectal carcinoma; assay: SRB cell proliferation (cytotoxicity) assay, HCT 116
Text: as §1

alkylated Gal1 = target: T2, alkylated Gal1 (Homo sapiens, UniProt P09382); assay: Hemagglutination inhibition assay, alkylated Gal1; format: cell-based; conditions: alkylated Gal1 5 μM
T2 construct: 42; made in house; host or cells: E. coli strain M-15
Method: FIG. 15 illustrates the hemagglutination test with constant protein concentration at 5 μM and titration of aptamers SEQ ID NO.: 4 and SEQ ID NO.: 9. (a) Titration with aptamer 4. The hemagglutination of native Gal1 was inhibited from the concentration of 10 μM of this compound.
Hemagglutination assay was adopted to assess the capacity of SEQ ID NO.: 4 in inhibiting the lectin cross-linking aggregation of red blood cells (RBC), as previously described. Briefly, using a 96-well microplates appropriate amounts of 5 μM hGal1 were blended with 50 μL of aptamer in an increasing concentrations manner (0-40 μM) in PBS 1× buffer (pH 7.4). Following, 50 μL of 3% purified type B+ RBC in PBS. After 2 h of room temperature incubation, the plate was photographed and the hemagglutination area was estimated by area calculator Sketchandcalc™ and the results were expressed as relative agglutination.
It was observed that treating hGal-1 with Iodoacetamide, which covalently binds the acetamide group in all solvent accessible cysteines sulfhydryl side chain, abolishes the anti-hemagglutinating activity of the aptamer. According to the proposed binding mode, this happens because Cysteines 2, 88 and 130 interact directly with the aptamer and adding the acetamide group to their side chains would disrupt specific aptamer-protein interactions (FIG. 13C).

[3] = system: OVCAR-3 human ovarian adenocarcinoma cell line; assay: SRB cell proliferation (cytotoxicity) assay, OVCAR-3
Text: as §1

OVCAR-3 cell line = assay: Synergism test with cisplatin, OVCAR-3; conditions: aptamer 12.5 μM associated with cisplatin 3 μM
Text: For the analysis of cell proliferation, the non-clonogenic method of sulforodamine B (SRB) was used, a protein dye that binds to the basic amino acid residues of cell proteins that were viable at the time of the fixation process. Therefore, the greater the amount of SRB bound per compartment, the less the antiproliferative activity of the item under study.

[4] = system: NHF human foreskin skin fibroblasts; assay: in vitro
Text: as §1

[5] = system: SK-BR-3 human breast adenocarcinoma; assay: SRB cell proliferation (cytotoxicity) assay, SK-BR-3
Text: as §1

[6] = target: T3, hGal1-induced hemagglutination of red blood cells (Homo sapiens, UniProt P09382); assay: Hemagglutination inhibition assay, native hGal1; format: cell-based
T3 construct: 42; made in house; host or cells: E. coli strain M-15
Summary of the method: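 hGal1 (5 μM) was mixed with aptamer at 0-40 μM in PBS pH 7.4, then 3% type B+ human red blood cells were added and the mixture incubated 2 h at room temperature. Agglutination area was measured from plate photographs and expressed as relative agglutination.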

T3 sequence (P09382 2-135): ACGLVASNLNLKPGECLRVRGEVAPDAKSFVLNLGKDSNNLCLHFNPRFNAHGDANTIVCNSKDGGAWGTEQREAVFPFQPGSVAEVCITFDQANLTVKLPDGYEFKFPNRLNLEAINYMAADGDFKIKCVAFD
T2 sequence (P09382 2-135): as above
T1 sequence (P09382 2-135): as above

B1: CTGACACAGCAGGTTGGTGCCAACTAACACCATAAGAATACCCCGCTCCAAATAAGCCCACACGTAAACCCGAGTCGAGCAATCTCGAAAT (nucleic acid)
DNA: CTGACACAGCAGGTTGGTGCCAACTAACACCATAAGAATACCCCGCTCCAAATAAGCCCACACGTAAACCCGAGTCGAGCAATCTCGAAAT
modifications: chemistry not given here
notes: DNA aptamer that recognizes human galectin-1
Kd (human galectin-1 (hGal1)): ~0.0319 µM
Relative cell viability (%) of test items ([1]; 0.781 µM): 109.5%
Relative cell viability (%) of test items ([1]; 1.562 µM): 100.6%
Relative cell viability (%) of test items ([1]; 3.125 µM): 103.0%
Relative cell viability (%) of test items ([1]; 6.25 µM): 97.3%
Relative cell viability (%) of test items ([1]; 12.5 µM): 85.8%
Relative cell viability (%) of test items ([1]; 25 µM): 35.7%
Relative cell viability (%) of test items ([1]; 50 µM): −69.0%
Relative cell viability (%) of test items ([1]; 100 µM): −72.3%
TGI: Concentration for total inhibition of cell growth ([1]; A-375): 29.656 µM
IC50 ([1]; read-out: IC50: Concentration to inhibit 50% of cell growth, A-375): 22.7 µM
CC50 ([1]; read-out: LC50: Concentration for 50% cell death, A-375): 41.1 µM
Relative cell viability (%) of test items ([2]; 0.781 µM): 103.6%
Relative cell viability (%) of test items ([2]; 1.562 µM): 95.4%
Relative cell viability (%) of test items ([2]; 3.125 µM): 85.5%
Relative cell viability (%) of test items ([2]; 6.25 µM): 85.0%
Relative cell viability (%) of test items ([2]; 12.5 µM): 57.1%
Relative cell viability (%) of test items ([2]; 25 µM): 24.4%
Relative cell viability (%) of test items ([2]; 50 µM): 3.6%
Relative cell viability (%) of test items ([2]; 100 µM): −70.2%
TGI: Concentration for total inhibition of cell growth ([2]; HCT 116): 45.410 µM
IC50 ([2]; read-out: IC50: Concentration to inhibit 50% of cell growth, HCT 116): 16.8 µM
CC50 ([2]; read-out: LC50: Concentration for 50% cell death, HCT 116): 84.4 µM
effect on hemagglutination by alkylated Gal1 (alkylated Gal1): no observed effect
Relative viability (%) of test items ([3]; 0.781 µM): 99.6%
Relative viability (%) of test items ([3]; 1.562 µM): 93.9%
Relative viability (%) of test items ([3]; 3.125 µM): 89.4%
Relative viability (%) of test items ([3]; 6.25 µM): 67.2%
Relative viability (%) of test items ([3]; 25 µM): 37.7%
Relative viability (%) of test items ([3]; 50 µM): −14.6%
Relative viability (%) of test items ([3]; 100 µM): −68.1%
TGI: Concentration for total inhibition of cell growth ([3]; OVCAR-3): 41.931 µM
IC50 ([3]; read-out: IC50: Concentration to inhibit 50% of cell growth, OVCAR-3): 14.2 µM
CC50 ([3]; read-out: LC50: Concentration for 50% cell death, OVCAR-3): 82.4 µM
decrease of cell viability versus cisplatin alone (OVCAR-3 cell line): ~60%
Relative viability (%) of test items ([4]; 0.781 µM): 95.3%
Relative viability (%) of test items ([4]; 1.562 µM): 94.2%
Relative viability (%) of test items ([4]; 3.125 µM): 98.4%
Relative viability (%) of test items ([4]; 6.25 µM): 100.7%
Relative viability (%) of test items ([4]; 12.5 µM): 106.6%
Relative viability (%) of test items ([4]; 25 µM): 73.4%
Relative viability (%) of test items ([4]; 50 µM): 19.8%
Relative viability (%) of test items ([4]; 100 µM): −25.4%
TGI: Concentration for total inhibition of cell growth ([4]; NHF): 63.101 µM
IC50 ([4]; read-out: IC50: Concentration to inhibit 50% of cell growth, NHF): 35.6 µM
Relative cell viability (%) of test items ([5]; 0.781 µM): 101.9%
Relative cell viability (%) of test items ([5]; 1.562 µM): 103.4%
Relative cell viability (%) of test items ([5]; 3.125 µM): 98.6%
Relative cell viability (%) of test items ([5]; 6.25 µM): 106.2%
Relative cell viability (%) of test items ([5]; 12.5 µM): 96.1%
Relative cell viability (%) of test items ([5]; 25 µM): 47.0%
Relative cell viability (%) of test items ([5]; 50 µM): −34.6%
Relative cell viability (%) of test items ([5]; 100 µM): −86.3%
TGI: Concentration for total inhibition of cell growth ([5]; SK-BR-3): 37.515 µM
IC50 ([5]; read-out: IC50: Concentration to inhibit 50% of cell growth, SK-BR-3): 25 µM
CC50 ([5]; read-out: LC50: Concentration for 50% cell death, SK-BR-3): 56.9 µM
inhibition effect over RBC agglutination ([6]; 10 μM aptamer, 5 μM hGal1): approximately 75%
inhibitory effect on galectin-induced hemagglutination ([6]; native Gal1 5 μM): better effect
concentration from which hemagglutination was inhibited ([6]; native Gal1 5 μM, listed as aptamer 4): 10 µM
